Test results reported in PMC9437722, “Identification of UDP-rhamnosyltransferases and UDP-galactosyltransferase involved in flavonol glycosylation in Morella rubra” (Horticulture Research, 2022).

What was measured:
MrUGT78W1 = test system: T1, MrUGT78W1; experiment: UDP-Glo glycosyltransferase assay, luminescence; type: biochemical, Morella rubra; conditions: 650 μM UDP-Gal, Tris-HCl 100 mM pH 8.5, 30°C
T1 construct: gene UGT78W1; full length, 469 residues (ORF 1410 bp), pET-32a(+) in E. coli BL21(DE3)pLysS, HisTALON purified, tag cleavage not mentioned; gene on chromosome 7
From the text: UDP-Glo glycosyltransferase assay, luminescence on MrUGT78W1

purified protein = substrate: O=c1c(O)c(-c2cc(O)c(O)c(O)c2)oc2cc(O)cc(O)c12; experiment: purified protein; conditions: 650 μM UDP-Rha, Tris-HCl 100 mM pH 7.5, 35°C
[1] = substrate: O=c1c(O)c(-c2ccc(O)cc2)oc2cc(O)cc(O)c12; experiment: UDP-Glo glycosyltransferase assay, luminescence; type: biochemical, Morella rubra; conditions: 650 μM UDP-Rha, Tris-HCl 100 mM pH 7.5, 35°C
From the text: (§1) UDP-Glo glycosyltransferase assay, luminescence on MrUGT78R2

[2] = substrate: O=c1c(O)c(-c2ccc(O)c(O)c2)oc2cc(O)cc(O)c12; experiment: UDP-Glo glycosyltransferase assay, luminescence; type: biochemical, Morella rubra; conditions: 650 μM UDP-Rha, Tris-HCl 100 mM pH 7.5, 35°C
From the text: as §1

**Q.** With `O=c1c(O)c(-c2ccc(O)c(O)c2)oc2cc(O)cc(O)c12` [Q, Quercetin] as the molecule, how does the Km (MrUGT78W1) read?
**A.** 93.5 ± 2.69 µM

**Q.** `O=c1c(O)c(-c2cc(O)c(O)c(O)c2)oc2cc(O)cc(O)c12` [M, Myricetin] was tested. Which Km (MrUGT78W1) did it give?
**A.** 13.7 ± 0.92 µM

**Q.** Which Km (MrUGT78W1) does the source give for `O=c1c(O)c(-c2ccc(O)cc2)oc2cc(O)cc(O)c12` [K, Kaempferol] here?
**A.** 50 ± 4.63 µM

B1: MrUGT78R2 (Morella rubra) (protein)
chain: MTQSSQDQHVAVLAFPLGCHPWPLLNLACKLACAAPNVRFSFFNTPKSNSKLFSTSQAEPPQNLKAYDVADGVPEGHVFTPGNPVEELELFLNAAPESFRNGMDMAVAETGREISCLLTDAFLVFASEMALDMHAKWVPFWVPAPHSLSAHMYSDLIYETYTNVCGGGEDGINTSDGDNYGTGTLGGIKPIDKTLDVIPGLSIMRFRDLPQQLLLGDFNSSLFSSALYRIGAVLPQASAVIMNSFQELNPATLTDDLKSKFQNLLYVGFLTLTLPPPPPPPSHSDATGCLPWLDDQKPTSVAYISFGTVSAVPPHEFVALAEALEASHVPFLWSLRDNFKEILPTGFLQRTRTQGKIVPWAPQAHVLAHKAVGVYVTHCGYNSVFESVVGEVPMICRPILGDNMFNGRMVEDVWGIGVGVEGGVFTKNGMLKSLEVVLGEEHGKRMREKIRDIKDLVVKAAGPTGIASKDFNTLVEVISK
notes: full length, 480 residues (ORF 1443 bp), pET-32a(+) in E. coli BL21(DE3)pLysS, HisTALON purified, tag cleavage not mentioned
**Q.** How did the Km (purified protein) turn out when B1 was run?
**A.** 66.78 ± 3.56 µM

**Q.** What about the kcat/Km (purified protein) of the same molecule?
**A.** 34700 M⁻¹ s⁻¹

**Q.** What about the Km [1] of the same molecule?
**A.** 58.11 ± 5.52 µM

**Q.** And the kcat/Km [1]?
**A.** 37800 ± 2500 M⁻¹ s⁻¹

**Q.** And the Km [2]?
**A.** 61.81 ± 8.74 µM

**Q.** And the kcat/Km [2]?
**A.** 45900 ± 4500 M⁻¹ s⁻¹
